From patent US20210230280A1 (EXIRIS S R L, published 2021)
Residue numbers refer to the chain shown, from its start. Where “and” joins values, the source holds several entries; their conditions need not be identical. Equal entries are not always repeated.

Assays:
[1] = biological target: T1, human chimeric receptor FGFR4-Fc (R&D Systems) (human, UniProt P22455 22-369); experiment: competition ELISA, FGF19 binding to FGFR4-Fc
T1 construct: extracellular domain; bought; also called hFGFR4-Fc; not shown: human IgG Fc
T1 sequence (looked up): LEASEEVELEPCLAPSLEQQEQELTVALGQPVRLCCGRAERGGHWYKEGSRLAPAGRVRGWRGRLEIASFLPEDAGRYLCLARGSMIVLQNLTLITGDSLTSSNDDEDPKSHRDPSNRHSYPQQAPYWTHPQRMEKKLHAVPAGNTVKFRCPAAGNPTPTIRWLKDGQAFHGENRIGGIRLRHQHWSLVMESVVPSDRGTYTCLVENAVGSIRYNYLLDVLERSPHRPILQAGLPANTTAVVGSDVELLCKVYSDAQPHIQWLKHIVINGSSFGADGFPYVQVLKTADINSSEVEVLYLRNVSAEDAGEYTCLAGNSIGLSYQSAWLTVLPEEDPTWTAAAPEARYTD

[2] = biological target: T2, human chimeric receptor FGFR3-Fc (R&D Systems) (human, UniProt P22607 23-375); experiment: solid phase receptor binding assay
T2 construct: extracellular domain; not shown: human Fc
T2 sequence (looked up): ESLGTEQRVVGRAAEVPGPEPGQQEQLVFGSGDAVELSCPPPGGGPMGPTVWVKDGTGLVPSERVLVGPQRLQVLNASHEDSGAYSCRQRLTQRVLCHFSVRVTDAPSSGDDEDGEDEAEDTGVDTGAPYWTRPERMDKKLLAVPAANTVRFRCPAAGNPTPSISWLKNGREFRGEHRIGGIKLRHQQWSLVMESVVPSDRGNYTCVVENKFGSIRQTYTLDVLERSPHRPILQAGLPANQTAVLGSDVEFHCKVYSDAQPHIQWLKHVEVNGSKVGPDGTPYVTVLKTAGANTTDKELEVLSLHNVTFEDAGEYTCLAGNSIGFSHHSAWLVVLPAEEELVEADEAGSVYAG

[3] = biological target: T3, murine FGFR4 (mouse, UniProt Q03142 17-799); experiment: told with the epitope alignment
T3 construct: whole, on cells; full-length, on transfected BOSC23 cells; also called murine receptor; murine FL FGFR4
T3 sequence (looked up): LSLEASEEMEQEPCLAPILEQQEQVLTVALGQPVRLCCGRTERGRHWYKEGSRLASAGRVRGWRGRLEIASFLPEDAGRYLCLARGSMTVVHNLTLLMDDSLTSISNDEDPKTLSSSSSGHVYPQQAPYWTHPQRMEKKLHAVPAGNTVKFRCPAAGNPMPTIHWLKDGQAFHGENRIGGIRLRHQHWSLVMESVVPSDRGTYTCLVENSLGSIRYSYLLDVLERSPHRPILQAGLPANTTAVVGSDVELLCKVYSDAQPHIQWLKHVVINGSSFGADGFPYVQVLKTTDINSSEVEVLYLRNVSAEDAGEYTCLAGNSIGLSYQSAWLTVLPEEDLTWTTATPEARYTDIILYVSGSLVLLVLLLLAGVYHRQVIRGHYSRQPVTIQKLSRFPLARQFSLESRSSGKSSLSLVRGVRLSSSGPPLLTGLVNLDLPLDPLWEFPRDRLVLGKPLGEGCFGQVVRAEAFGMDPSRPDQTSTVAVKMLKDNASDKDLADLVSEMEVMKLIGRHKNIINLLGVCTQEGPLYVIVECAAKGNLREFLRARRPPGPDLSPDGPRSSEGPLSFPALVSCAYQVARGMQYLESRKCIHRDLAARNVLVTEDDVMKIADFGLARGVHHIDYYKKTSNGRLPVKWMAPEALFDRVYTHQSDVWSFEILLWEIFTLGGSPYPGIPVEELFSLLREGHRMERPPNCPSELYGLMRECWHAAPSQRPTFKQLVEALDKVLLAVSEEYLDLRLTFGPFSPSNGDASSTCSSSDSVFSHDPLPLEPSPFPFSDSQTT

B1: Hu3B6a (antibody, human IgG1, V domains shown)
VH: EVQLVESGGGLVQPGGSLRLSCAASGFTFSNYYMSWVRQAPGKGLEWVATINPSGTRTYYPDSVKGRFTISRDNAKNSLYLQMNSLRAEDTAVYYCARLYNNYAFDYWGQGTLVTVSS
VL: DIQMTQSPSSLSASVGDRVTITCRASESISTLLHWYQQKPGKAPKLLIYGTSNLESGVPSRFSGSGSGTDFTLTISSLQPEDFATYYCQQSWNDPPTFGGGTKVEIK
Q: How did the IC50 [1] turn out when B1 was run?
A: Its IC50 is 0.13 µg/mL and 0.87 nM.

B2: Hu3B6e (antibody, human IgG1, V domains shown)
VH: B1 VH with T50N
VL: B1 VL with I29V, L33M
Q: How did the IC50 [1] turn out when B2 was run?
A: The IC50 was 0.16 µg/mL and 1 nM.

B3: Hu3B6d (antibody, human IgG1, V domains shown)
VH: B1 VH
VL: B1 VL with I29V, L33M
Q: How did the IC50 [1] turn out when B3 was run?
A: The IC50 was 0.03 µg/mL and 0.2 nM.

B4: Hu3B6b (antibody, human IgG1, V domains shown)
VH: B1 VH with T50N
VL: B1 VL
Q: B4 was tested. Which IC50 [1] did it give?
A: Its IC50 is 0.4 µg/mL and 2.7 nM.

B5: Hu3B6c (antibody, human IgG1, V domains shown)
VH: B1 VH with N74S, N77S
VL: B1 VL
Q: For B5, which IC50 [1] is on record?
A: Its IC50 is 0.07 µg/mL and 0.47 nM.

B6: Hu3B6f (antibody, human IgG1, V domains shown)
VH: B1 VH with N74S, N77S
VL: B1 VL with I29V, L33M
Q: Which IC50 [1] does the source give for B6 here?
A: Its IC50 is 0.09 µg/mL and 0.6 nM.

B7: ch3B6 (antibody, human IgG1, V domains shown)
VH: EVQLVESGGGLVQPGRSLKLSCAASGFTFSNYYMAWVRQAPKKGLEWVATINPSGTRTYYPDSVKGRFTLSRDSAKSSLYLQMNSLKSEDTATFYCARLYNNYAFDYWGQGVMVTVSS
VL: DVQMTQSPALAVSPGERVSISCRASESVSTLMHWYQQKPGQQPKLLIYGTSNLESGVPARFSGSGSGTDFTLNIDPVEADDTATYFCQQSWNDPPTFGGGTKLELK
notes: human-rat chimeric antibody, human IgG1 constant regions and human kappa constant region; also called chimeric 3B6
Q: Does B7 bind [2]?
A: Result: no binding (tested: 9 ug/mL)

Q: Does B7 bind [3]?
A: Result: binds
